Where a SMILES comes first, the peptide text is derived from it. [ ]: non-standard residue; d: D form. The star is where a group is joined. NMeK = CN[C@@H](CCCCN)C(=O)O; Pent4ynoyl = C#CCCC(=O)*
Key:
in vivo = test: in vivo; design: species or system mice; settings: CB17 SCID, mouse, total radioactivity
Description: The biodistribution of all ^68Ga-labeled peptide trimers was investigated in severe combined immunodeficiency (SCID) mice bearing subcutaneous xenografts of the αvβ6-integrin expressing human lung adenocarcinoma cell line H2009 on their right shoulders.
(§1) Unless otherwise noted, the materials and the instrumentation used (analytical and preparative HPLC, ESI-MS, gamma counter, centrifuge), and the experimental procedures (^68Ga radiolabeling and radio-TLC for quality control, determination of log D7.4, cultivation of H2009 human lung adenocarcinoma cells, generation of tumor xenografts in CB17 SCID mice, small-animal PET, and biodistribution) were described before.[19] All animal experiments have been carried out according to applicable law and institutional guidelines of Technical University of Munich, and were approved by the responsible local authority (Regierung von Oberbayern). The H2009 cells were regularly authenticated and tested for mycoplasma contamination. The affinities of the pentynoic amide functionalized peptides were determined employing a well-established ELISA protocol on immobilized integrins.[36] TRAP-triazide,[38]FF (previously termed AvB6),[32] and YY (also referred to as Tyr2-alkyne)[33] were synthesized as described previously. RP-HPLC for assessment of compound polarity was done on a 150 × 4.6 mm ReproSil-Pur 120 C18-AQ 5 μm column, with a flow of 0.75 mL min^−1 and a gradient of 10–50% MeCN in water, both containing 0.1% trifluoroacetic acid, within 15 min. The required ^natGa-complexes of the peptide trimers were synthesized by reaction with equimolar amounts of aq. GaCl3 as described.[19]

[1] = type: physicochemical; settings: pH 7.4
Experimental: The trimers were labeled with ^68Ga for biodistribution and small-animal PET experiments employing a fully automated method.[39] Non-radioactive reference compounds were obtained by complexation of equimolar amounts of ^natGa^3+ in form of the aq. chloride solution.[39] The polarity of the ^68Ga or ^natGa^3+ containing conjugates, respectively, was assessed by two established proxies, namely the n-octanol/water distribution coefficient at pH 7.4, log D7.4, and the retention time tR on a reverse-phase HPLC column with a suitable liquid-phase gradient (10–50% acetonitrile in water with 0.1% trifluoroacetic acid) (see Fig. 2a). […] A measurable decrease of the log D7.4 was only observed for ≥3 Tyr. […]
as §1

αvβ6-integrin = αvβ6-integrin (Homo sapiens, UniProt P06756+P18564); test: ELISA on immobilized integrins, αvβ6; type: binding
Experimental: (§2) The integrin affinities of the monomers were determined using an established ELISA protocol,[36] and expressed as 50% inhibitory concentrations (IC50, Table 1).
as §1

α5β1-integrin = α5β1-integrin (Homo sapiens, UniProt P05556+P08648); test: ELISA on immobilized integrins, α5β1; type: binding; settings: read-out: IC50 (95% confidence interval) α5β1
Experimental: as §2
as §1, with “RP-HPLC for assessment of compound polarity was done on a 150 × 4.6 mm ReproSil-Pur 120 C18-AQ 5 μm column, with a flow of 0.75 mL min^−1 and a gradient of 10–50% MeCN in water, both containing 0.1% trifluoroacetic acid, within 15 min. The required ^natGa-complexes of the peptide trimers were synthesized by reaction with equimolar amounts of aq. GaCl3 as described.[19]” left out

αvβ3-integrin = αvβ3-integrin (Homo sapiens, UniProt P05106+P06756); test: ELISA on immobilized integrins, αvβ3; type: binding; settings: read-out: IC50 (95% confidence interval) αvβ3
Experimental: as §2
as §1, with “RP-HPLC for assessment of compound polarity was done on a 150 × 4.6 mm ReproSil-Pur 120 C18-AQ 5 μm column, with a flow of 0.75 mL min^−1 and a gradient of 10–50% MeCN in water, both containing 0.1% trifluoroacetic acid, within 15 min. The required ^natGa-complexes of the peptide trimers were synthesized by reaction with equimolar amounts of aq. GaCl3 as described.[19]” left out

αvβ8-integrin = αvβ8-integrin (Homo sapiens, UniProt P06756+P26012); test: ELISA on immobilized integrins, αvβ8; type: binding; settings: read-out: IC50 (95% confidence interval) αvβ8
Experimental: as §2
as §1, with “RP-HPLC for assessment of compound polarity was done on a 150 × 4.6 mm ReproSil-Pur 120 C18-AQ 5 μm column, with a flow of 0.75 mL min^−1 and a gradient of 10–50% MeCN in water, both containing 0.1% trifluoroacetic acid, within 15 min. The required ^natGa-complexes of the peptide trimers were synthesized by reaction with equimolar amounts of aq. GaCl3 as described.[19]” left out

[2] = tumor/organ ratio Heart (myocard)
[3] = tumor/organ ratio Large intestine (empty)
[4] = tumor/organ ratio Small intestine (empty)
[5] = tumor/organ ratio Stomach (empty)

αvβ6-integrin, sequence (P06756 31-992 limits assumed): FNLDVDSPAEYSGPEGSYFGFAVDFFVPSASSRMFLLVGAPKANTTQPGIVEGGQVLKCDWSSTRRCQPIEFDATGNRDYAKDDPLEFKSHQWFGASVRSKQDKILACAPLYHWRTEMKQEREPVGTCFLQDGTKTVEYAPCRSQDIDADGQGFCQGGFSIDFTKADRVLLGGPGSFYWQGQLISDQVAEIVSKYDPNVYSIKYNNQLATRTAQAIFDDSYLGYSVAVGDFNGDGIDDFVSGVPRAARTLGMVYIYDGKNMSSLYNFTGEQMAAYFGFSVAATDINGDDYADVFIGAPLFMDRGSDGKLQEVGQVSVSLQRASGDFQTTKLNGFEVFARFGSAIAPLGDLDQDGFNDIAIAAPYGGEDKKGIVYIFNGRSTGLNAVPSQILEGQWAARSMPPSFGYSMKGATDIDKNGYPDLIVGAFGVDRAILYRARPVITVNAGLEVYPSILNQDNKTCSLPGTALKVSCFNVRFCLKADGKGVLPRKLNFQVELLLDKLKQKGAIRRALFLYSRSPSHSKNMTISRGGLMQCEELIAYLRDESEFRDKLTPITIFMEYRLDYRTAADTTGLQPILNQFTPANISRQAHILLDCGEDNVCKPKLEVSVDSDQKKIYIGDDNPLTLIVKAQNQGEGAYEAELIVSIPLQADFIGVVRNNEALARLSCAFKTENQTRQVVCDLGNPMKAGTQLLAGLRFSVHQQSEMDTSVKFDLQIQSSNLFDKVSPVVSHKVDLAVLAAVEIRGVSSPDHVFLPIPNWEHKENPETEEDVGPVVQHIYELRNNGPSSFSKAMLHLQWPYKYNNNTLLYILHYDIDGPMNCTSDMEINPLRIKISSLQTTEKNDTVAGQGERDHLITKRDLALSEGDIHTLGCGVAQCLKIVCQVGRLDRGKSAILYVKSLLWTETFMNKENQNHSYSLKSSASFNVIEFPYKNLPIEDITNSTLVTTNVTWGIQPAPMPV
αvβ6-integrin, sequence (P18564 22-707 limits assumed): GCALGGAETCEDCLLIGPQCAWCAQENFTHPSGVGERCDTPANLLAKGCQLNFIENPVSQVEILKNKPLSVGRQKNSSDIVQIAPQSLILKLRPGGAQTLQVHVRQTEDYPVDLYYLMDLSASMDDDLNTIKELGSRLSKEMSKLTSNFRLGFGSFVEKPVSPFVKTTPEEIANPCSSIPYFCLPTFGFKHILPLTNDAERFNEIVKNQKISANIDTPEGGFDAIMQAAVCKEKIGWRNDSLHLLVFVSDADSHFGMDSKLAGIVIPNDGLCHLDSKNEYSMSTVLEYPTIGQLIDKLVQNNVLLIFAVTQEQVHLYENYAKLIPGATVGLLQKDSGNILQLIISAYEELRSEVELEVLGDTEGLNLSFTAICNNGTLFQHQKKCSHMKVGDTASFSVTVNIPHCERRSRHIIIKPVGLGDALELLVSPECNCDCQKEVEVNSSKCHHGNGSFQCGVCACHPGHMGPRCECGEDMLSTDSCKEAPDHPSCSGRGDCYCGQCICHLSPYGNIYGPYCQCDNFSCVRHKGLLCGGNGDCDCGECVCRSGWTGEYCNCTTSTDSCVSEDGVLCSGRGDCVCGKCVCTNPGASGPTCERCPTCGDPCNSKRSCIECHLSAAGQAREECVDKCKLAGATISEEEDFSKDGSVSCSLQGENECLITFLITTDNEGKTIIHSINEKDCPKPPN
α5β1-integrin, sequence (P08648 42-995 limits assumed): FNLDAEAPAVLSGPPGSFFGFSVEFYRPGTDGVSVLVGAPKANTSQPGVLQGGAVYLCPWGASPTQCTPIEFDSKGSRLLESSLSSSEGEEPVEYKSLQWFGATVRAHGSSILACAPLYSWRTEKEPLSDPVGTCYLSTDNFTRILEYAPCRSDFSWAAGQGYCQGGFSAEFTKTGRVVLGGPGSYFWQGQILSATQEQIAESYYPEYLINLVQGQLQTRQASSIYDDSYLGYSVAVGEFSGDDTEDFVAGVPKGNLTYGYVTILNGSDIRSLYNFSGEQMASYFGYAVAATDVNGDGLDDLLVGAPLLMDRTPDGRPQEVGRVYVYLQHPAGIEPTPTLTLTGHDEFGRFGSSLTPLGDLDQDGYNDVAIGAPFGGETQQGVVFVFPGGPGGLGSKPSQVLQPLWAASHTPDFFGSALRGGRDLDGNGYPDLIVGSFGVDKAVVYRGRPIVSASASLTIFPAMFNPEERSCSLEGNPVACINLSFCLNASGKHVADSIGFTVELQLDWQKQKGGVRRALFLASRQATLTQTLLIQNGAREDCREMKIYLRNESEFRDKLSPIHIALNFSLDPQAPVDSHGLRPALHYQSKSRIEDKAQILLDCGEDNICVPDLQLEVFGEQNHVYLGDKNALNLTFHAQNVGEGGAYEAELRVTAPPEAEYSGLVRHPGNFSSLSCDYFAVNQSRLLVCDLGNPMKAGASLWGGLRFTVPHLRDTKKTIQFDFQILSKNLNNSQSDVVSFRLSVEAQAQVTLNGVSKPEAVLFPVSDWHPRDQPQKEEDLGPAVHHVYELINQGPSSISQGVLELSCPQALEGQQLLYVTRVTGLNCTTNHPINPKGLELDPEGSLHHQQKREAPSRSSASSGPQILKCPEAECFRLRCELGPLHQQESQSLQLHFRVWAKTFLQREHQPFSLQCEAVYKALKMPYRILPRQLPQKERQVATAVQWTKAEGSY
α5β1-integrin, sequence (P05556 21-728 limits assumed): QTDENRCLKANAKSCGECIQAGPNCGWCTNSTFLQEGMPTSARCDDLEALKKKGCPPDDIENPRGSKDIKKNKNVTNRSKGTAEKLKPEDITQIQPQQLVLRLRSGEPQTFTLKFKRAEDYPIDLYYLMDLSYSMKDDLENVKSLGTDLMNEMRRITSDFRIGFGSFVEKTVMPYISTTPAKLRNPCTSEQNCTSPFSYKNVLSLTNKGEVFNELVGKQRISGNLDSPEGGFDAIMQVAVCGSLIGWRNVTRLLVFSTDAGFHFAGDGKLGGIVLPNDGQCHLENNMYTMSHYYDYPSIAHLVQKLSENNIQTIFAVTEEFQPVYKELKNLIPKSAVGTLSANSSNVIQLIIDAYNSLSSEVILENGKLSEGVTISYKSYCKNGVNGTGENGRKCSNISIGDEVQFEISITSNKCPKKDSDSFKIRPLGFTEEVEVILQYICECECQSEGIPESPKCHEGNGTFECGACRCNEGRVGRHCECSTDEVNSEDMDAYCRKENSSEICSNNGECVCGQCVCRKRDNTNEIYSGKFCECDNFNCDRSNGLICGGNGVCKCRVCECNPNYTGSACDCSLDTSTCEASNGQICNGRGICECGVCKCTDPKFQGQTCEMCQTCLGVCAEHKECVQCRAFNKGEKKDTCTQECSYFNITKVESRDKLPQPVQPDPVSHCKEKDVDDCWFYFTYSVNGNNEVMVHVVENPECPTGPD
αvβ3-integrin, sequence (P06756 31-1048): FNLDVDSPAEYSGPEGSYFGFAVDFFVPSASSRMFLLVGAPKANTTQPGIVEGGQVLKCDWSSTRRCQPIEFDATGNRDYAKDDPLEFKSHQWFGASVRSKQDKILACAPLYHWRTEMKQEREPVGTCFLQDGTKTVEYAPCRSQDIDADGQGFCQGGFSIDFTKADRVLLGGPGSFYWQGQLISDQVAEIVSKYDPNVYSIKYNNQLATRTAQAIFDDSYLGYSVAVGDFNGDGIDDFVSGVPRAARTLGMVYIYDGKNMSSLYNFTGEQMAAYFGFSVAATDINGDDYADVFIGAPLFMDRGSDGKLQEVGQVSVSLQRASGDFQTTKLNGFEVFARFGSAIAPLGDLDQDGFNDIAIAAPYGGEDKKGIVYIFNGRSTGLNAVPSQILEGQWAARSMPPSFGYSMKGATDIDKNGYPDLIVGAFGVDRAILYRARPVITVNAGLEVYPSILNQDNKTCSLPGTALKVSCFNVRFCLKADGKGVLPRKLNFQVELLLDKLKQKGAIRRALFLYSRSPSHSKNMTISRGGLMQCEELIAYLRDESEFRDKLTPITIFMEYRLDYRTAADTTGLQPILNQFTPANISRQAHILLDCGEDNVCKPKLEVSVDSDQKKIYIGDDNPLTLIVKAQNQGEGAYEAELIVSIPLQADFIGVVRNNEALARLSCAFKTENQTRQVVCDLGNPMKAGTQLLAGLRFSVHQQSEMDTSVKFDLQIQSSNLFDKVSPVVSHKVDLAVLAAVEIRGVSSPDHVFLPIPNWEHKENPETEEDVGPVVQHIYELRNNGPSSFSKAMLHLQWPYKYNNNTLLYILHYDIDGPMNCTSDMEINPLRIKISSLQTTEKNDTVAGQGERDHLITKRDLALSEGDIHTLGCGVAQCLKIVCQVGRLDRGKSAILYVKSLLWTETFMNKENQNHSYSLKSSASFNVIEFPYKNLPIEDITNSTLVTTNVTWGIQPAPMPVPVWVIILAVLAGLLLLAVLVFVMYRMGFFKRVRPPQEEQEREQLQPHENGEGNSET
αvβ3-integrin, sequence (P05106 27-788): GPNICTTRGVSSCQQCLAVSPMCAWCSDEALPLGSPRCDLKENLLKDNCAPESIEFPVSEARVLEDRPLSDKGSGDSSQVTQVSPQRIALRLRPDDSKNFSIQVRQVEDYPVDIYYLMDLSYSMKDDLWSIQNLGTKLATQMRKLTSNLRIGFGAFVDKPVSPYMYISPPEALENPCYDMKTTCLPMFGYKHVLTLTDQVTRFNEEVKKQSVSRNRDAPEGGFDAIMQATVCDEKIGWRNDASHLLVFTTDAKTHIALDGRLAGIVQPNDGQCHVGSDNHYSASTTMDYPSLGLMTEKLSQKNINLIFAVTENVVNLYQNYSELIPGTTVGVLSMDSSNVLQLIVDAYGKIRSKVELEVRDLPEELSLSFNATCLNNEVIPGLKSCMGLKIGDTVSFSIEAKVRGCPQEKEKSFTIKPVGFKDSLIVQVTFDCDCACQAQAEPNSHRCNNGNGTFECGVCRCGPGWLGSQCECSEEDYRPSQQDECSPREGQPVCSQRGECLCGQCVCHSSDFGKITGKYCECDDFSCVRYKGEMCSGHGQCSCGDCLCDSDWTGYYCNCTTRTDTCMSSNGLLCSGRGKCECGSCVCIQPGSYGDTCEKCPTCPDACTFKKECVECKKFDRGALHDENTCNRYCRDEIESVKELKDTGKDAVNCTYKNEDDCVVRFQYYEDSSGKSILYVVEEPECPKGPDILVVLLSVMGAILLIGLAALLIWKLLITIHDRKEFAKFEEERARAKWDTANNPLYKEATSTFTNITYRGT

Structure (SMILES)	tissue uptake at 1.5 h (in vivo; Adrenals uptake) [%ID/g]	tissue uptake at 1.5 h (in vivo; Blood uptake) [%ID/g]	tissue uptake at 1.5 h (in vivo; Heart (myocard) uptake) [%ID/g]	tissue uptake at 1.5 h (in vivo; Kidneys uptake) [%ID/g]	tissue uptake at 1.5 h (in vivo; Large intestine (empty) uptake) [%ID/g]	tissue uptake at 1.5 h (in vivo; Liver uptake) [%ID/g]	tissue uptake at 1.5 h (in vivo; Lung uptake) [%ID/g]	tissue uptake at 1.5 h (in vivo; Muscle uptake) [%ID/g]	tissue uptake at 1.5 h (in vivo; Pancreas uptake) [%ID/g]	tissue uptake at 1.5 h (in vivo; Small intestine (empty) uptake) [%ID/g]	tissue uptake at 1.5 h (in vivo; Spleen uptake) [%ID/g]	tissue uptake at 1.5 h (in vivo; Stomach (empty) uptake) [%ID/g]	tissue uptake at 1.5 h (in vivo; Tumor H2009 uptake) [%ID/g]	tissue to tissue ratio at 1.5 h (in vivo; tumor/organ ratio Adrenals)	tissue to tissue ratio at 1.5 h (in vivo; tumor/organ ratio Blood)	tissue to tissue ratio at 1.5 h (in vivo; [2])	tissue to tissue ratio at 1.5 h (in vivo; tumor/organ ratio Kidneys)	tissue to tissue ratio at 1.5 h (in vivo; [3])	tissue to tissue ratio at 1.5 h (in vivo; tumor/organ ratio Liver)	tissue to tissue ratio at 1.5 h (in vivo; tumor/organ ratio Lung)	further results
CC(C)C[C@@H]1NC(=O)[C@H](CC(=O)O)NC(=O)CNC(=O)[C@H](CCCNC(=N)N)NC(=O)[C@H](Cc2ccccc2)NC(=O)[C@H](CCCCNC(=O)CCc2cn(CCCNC(=O)CCP(=O)(O)CN3CCN(CP(=O)(O)CCC(=O)NCCCn4cc(CCC(=O)NCCCC[C@H]5C(=O)N[C@@H](Cc6ccc(O)cc6)C(=O)N[C@@H](CCCNC(=N)N)C(=O)NCC(=O)N[C@@H](CC(=O)O)C(=O)N[C@@H](CC(C)C)C(=O)N[C@@H](C)C(=O)N[C@@H](Cc6ccc(O)cc6)C(=O)N6CCC[C@@H]6C(=O)N5C)nn4)CCN(CP(=O)(O)CCC(=O)NCCCn4cc(CCC(=O)NCCCC[C@H]5C(=O)N[C@@H](Cc6ccc(O)cc6)C(=O)N[C@@H](CCCNC(=N)N)C(=O)NCC(=O)N[C@@H](CC(=O)O)C(=O)N[C@@H](CC(C)C)C(=O)N[C@@H](C)C(=O)N[C@@H](Cc6ccc(O)cc6)C(=O)N6CCC[C@@H]6C(=O)N5C)nn4)CC3)nn2)N(C)C(=O)[C@H]2CCCN2C(=O)[C@H](Cc2ccccc2)NC(=O)[C@H](C)NC1=O (68Ga complex, metal not drawn) [Y4]	0.71 ± 0.37	0.86 ± 0.26	0.47 ± 0.12	91.3 ± 8.28	2.29 ± 0.59	0.93 ± 0.14	3.22 ± 0.63	1.41 ± 0.06	0.28 ± 0.08	1.35 ± 0.53	1.57 ± 0.57	4.92 ± 1.06	4.47 ± 0.96	7.1 ± 1.9	5.5 ± 1.4	9.6 ± 1.3	0.1	2.1 ± 0.6	5 ± 0.5	1.4 ± 0.2	tissue to tissue ratio at 1.5 h (in vivo; tumor/organ ratio Muscle): 12.2 ± 2.8; tissue to tissue ratio at 1.5 h (in vivo; tumor/organ ratio Pancreas): 16.5 ± 1.6; tissue to tissue ratio at 1.5 h (in vivo; [4]): 3.7 ± 1; tissue to tissue ratio at 1.5 h (in vivo; tumor/organ ratio Spleen): 3 ± 0.7; tissue to tissue ratio at 1.5 h (in vivo; [5]): 1 ± 0.3; logD [1]: -1.9 ± 0.1
CC(C)C[C@@H]1NC(=O)[C@H](CC(=O)O)NC(=O)CNC(=O)[C@H](CCCNC(=N)N)NC(=O)[C@H](Cc2ccc(O)cc2)NC(=O)[C@H](CCCCNC(=O)CCc2cn(CCCNC(=O)CCP(=O)(O)CN3CCN(CP(=O)(O)CCC(=O)NCCCn4cc(CCC(=O)NCCCC[C@H]5C(=O)N[C@@H](Cc6ccc(O)cc6)C(=O)N[C@@H](CCCNC(=N)N)C(=O)NCC(=O)N[C@@H](CC(=O)O)C(=O)N[C@@H](CC(C)C)C(=O)N[C@@H](C)C(=O)N[C@@H](Cc6ccccc6)C(=O)N6CCC[C@@H]6C(=O)N5C)nn4)CCN(CP(=O)(O)CCC(=O)NCCCn4cc(CCC(=O)NCCCC[C@H]5C(=O)N[C@@H](Cc6ccc(O)cc6)C(=O)N[C@@H](CCCNC(=N)N)C(=O)NCC(=O)N[C@@H](CC(=O)O)C(=O)N[C@@H](CC(C)C)C(=O)N[C@@H](C)C(=O)N[C@@H](Cc6ccccc6)C(=O)N6CCC[C@@H]6C(=O)N5C)nn4)CC3)nn2)N(C)C(=O)[C@H]2CCCN2C(=O)[C@H](Cc2ccccc2)NC(=O)[C@H](C)NC1=O (68Ga complex, metal not drawn) [Y3Y]	0.81 ± 0.41	1.13 ± 0.25	0.66 ± 0.16	72.6 ± 5.25	3.94 ± 1.85	1.23 ± 0.19	4.96 ± 0.48	0.51 ± 0.11	0.33 ± 0.07	1.69 ± 0.2	3.82 ± 0.82	4.03 ± 1.36	5.92 ± 2.07	6.7 ± 3	4.9 ± 0.5	8.5 ± 1.1	0.1	1.8 ± 1.1	4.4 ± 0.7	1 ± 0.2	tissue to tissue ratio at 1.5 h (in vivo; tumor/organ ratio Muscle): 10.7 ± 1.1; tissue to tissue ratio at 1.5 h (in vivo; tumor/organ ratio Pancreas): 17 ± 1.4; tissue to tissue ratio at 1.5 h (in vivo; [4]): 3.2 ± 0.6; tissue to tissue ratio at 1.5 h (in vivo; tumor/organ ratio Spleen): 1.4 ± 0.2; tissue to tissue ratio at 1.5 h (in vivo; [5]): 1.5 ± 0.7; logD [1]: -1.7 ± 0.1
C#CCCC(=O)NCCCC[C@H]1C(=O)N[C@@H](Cc2ccccc2)C(=O)N[C@@H](CCCNC(=N)N)C(=O)NCC(=O)N[C@@H](CC(=O)O)C(=O)N[C@@H](CC(C)C)C(=O)N[C@@H](C)C(=O)N[C@@H](Cc2ccc(O)cc2)C(=O)N2CCC[C@@H]2C(=O)N1C [FY] (cyclo(FRGDLAY[dP][NMeK](Pent4ynoyl)))	–	–	–	–	–	–	–	–	–	–	–	–	–	–	–	–	–	–	–	–	IC50 (αvβ6-integrin; ELISA, read-out: IC50 (95% confidence interval) αvβ6): 2.8 nM; αvβ6-selectivity over α5β1 (αvβ6-integrin; IC50-based): 63; αvβ6-selectivity over αvβ3 (αvβ6-integrin; IC50-based): 261; αvβ6-selectivity over αvβ8 (αvβ6-integrin; IC50-based): 13.2; IC50 (α5β1-integrin): 177 nM; IC50 (αvβ3-integrin): 732 nM; IC50 (αvβ8-integrin): 37 nM
